Measured values taken from article PMC4501837, “Mutational Dissection of Telomeric DNA Binding Requirements of G4 Resolvase 1 Shows that G4-Structure and Certain 3’-Tail Sequences Are Sufficient for Tight and Complete Binding”.

How the values were obtained:
[1] = molecular target: T1, G4 Resolvase 1 (G4R1) (UniProt Q9H2U1 1-1008); experiment: EMSA; 50 mM KCl, K+-induced 3+1 G4, 24 h; apparent Kd, n=3; 50 mM KCl, 10 mM NaCl (or 50 mM KCl or 50 mM NaCl alone), 3 mM MgCl2, 50 mM Tris acetate pH 7.8, 70 mM glycine, 0.012% bovine lactalbumin, 10% glycerol, 10 mM EDTA; 37 C, 0.5 or 24 h; 1 pM DNA, 10-500 pM G4R1; gel at 7 C; settings: protein: recombinant; label: 5'-32P; unimolecular G4; 3+1 in K+, 2+2 basket in Na+
T1 sequence: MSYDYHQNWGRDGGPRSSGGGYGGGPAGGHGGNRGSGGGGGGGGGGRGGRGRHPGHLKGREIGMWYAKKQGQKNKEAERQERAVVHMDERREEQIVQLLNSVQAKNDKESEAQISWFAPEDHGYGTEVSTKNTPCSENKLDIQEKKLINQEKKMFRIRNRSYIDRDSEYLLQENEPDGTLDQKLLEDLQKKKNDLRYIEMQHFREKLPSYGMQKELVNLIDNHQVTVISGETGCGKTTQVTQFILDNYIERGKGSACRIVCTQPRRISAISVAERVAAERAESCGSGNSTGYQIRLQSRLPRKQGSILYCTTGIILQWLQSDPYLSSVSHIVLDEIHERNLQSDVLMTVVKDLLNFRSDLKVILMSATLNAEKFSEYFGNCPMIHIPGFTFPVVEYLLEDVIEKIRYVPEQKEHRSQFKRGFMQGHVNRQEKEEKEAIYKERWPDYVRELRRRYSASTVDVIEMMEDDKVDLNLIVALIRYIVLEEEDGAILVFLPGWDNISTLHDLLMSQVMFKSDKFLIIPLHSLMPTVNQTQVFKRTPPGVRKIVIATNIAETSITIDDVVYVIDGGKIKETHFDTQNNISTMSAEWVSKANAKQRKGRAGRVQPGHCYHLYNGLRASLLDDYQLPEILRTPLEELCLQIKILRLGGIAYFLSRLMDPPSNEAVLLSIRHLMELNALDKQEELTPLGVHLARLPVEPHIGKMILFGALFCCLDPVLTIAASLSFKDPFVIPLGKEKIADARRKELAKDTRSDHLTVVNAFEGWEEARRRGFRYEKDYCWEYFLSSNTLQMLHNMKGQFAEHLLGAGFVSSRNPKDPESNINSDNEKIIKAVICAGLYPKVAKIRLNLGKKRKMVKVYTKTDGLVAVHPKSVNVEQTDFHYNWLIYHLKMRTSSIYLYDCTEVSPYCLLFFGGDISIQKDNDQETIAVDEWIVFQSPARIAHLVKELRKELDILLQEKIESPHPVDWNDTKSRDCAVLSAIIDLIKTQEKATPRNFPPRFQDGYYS

[2] = molecular target: T1, G4 Resolvase 1 (G4R1); experiment: EMSA; K+; similar to Tel33; 50 mM KCl, 10 mM NaCl (or 50 mM KCl or 50 mM NaCl alone), 3 mM MgCl2, 50 mM Tris acetate pH 7.8, 70 mM glycine, 0.012% bovine lactalbumin, 10% glycerol, 10 mM EDTA; 37 C, 0.5 or 24 h; 1 pM DNA, 10-500 pM G4R1; gel at 7 C; settings: protein: recombinant, label: 5'-32P
[3] = molecular target: T1, G4 Resolvase 1 (G4R1); experiment: EMSA; K+; negligible binding; 50 mM KCl, 10 mM NaCl (or 50 mM KCl or 50 mM NaCl alone), 3 mM MgCl2, 50 mM Tris acetate pH 7.8, 70 mM glycine, 0.012% bovine lactalbumin, 10% glycerol, 10 mM EDTA; 37 C, 0.5 or 24 h; 1 pM DNA, 10-500 pM G4R1; gel at 7 C; settings: protein: recombinant; label: 5'-32P; G4 ablated (CD)
[4] = molecular target: T1, G4 Resolvase 1 (G4R1); experiment: EMSA; K+; significant binding restored; 50 mM KCl, 10 mM NaCl (or 50 mM KCl or 50 mM NaCl alone), 3 mM MgCl2, 50 mM Tris acetate pH 7.8, 70 mM glycine, 0.012% bovine lactalbumin, 10% glycerol, 10 mM EDTA; 37 C, 0.5 or 24 h; 1 pM DNA, 10-500 pM G4R1; gel at 7 C; settings: protein: recombinant; label: 5'-32P; unimolecular G4, two tetrads expected
[5] = molecular target: T1, G4 Resolvase 1 (G4R1); experiment: EMSA; K+; complete binding restored; 50 mM KCl, 10 mM NaCl (or 50 mM KCl or 50 mM NaCl alone), 3 mM MgCl2, 50 mM Tris acetate pH 7.8, 70 mM glycine, 0.012% bovine lactalbumin, 10% glycerol, 10 mM EDTA; 37 C, 0.5 or 24 h; 1 pM DNA, 10-500 pM G4R1; gel at 7 C; settings: protein: recombinant; label: 5'-32P; unimolecular G4, two tetrads expected
[6] = molecular target: T1, G4 Resolvase 1 (G4R1); experiment: EMSA; K+; 50 mM KCl, 10 mM NaCl (or 50 mM KCl or 50 mM NaCl alone), 3 mM MgCl2, 50 mM Tris acetate pH 7.8, 70 mM glycine, 0.012% bovine lactalbumin, 10% glycerol, 10 mM EDTA; 37 C, 0.5 or 24 h; 1 pM DNA, 10-500 pM G4R1; gel at 7 C; settings: protein: recombinant, label: 5'-32P, unimolecular G4, 3+1 in K+
[7] = molecular target: T1, G4 Resolvase 1 (G4R1); experiment: EMSA; K+; did not significantly bind; 50 mM KCl, 10 mM NaCl (or 50 mM KCl or 50 mM NaCl alone), 3 mM MgCl2, 50 mM Tris acetate pH 7.8, 70 mM glycine, 0.012% bovine lactalbumin, 10% glycerol, 10 mM EDTA; 37 C, 0.5 or 24 h; 1 pM DNA, 10-500 pM G4R1; gel at 7 C; settings: protein: recombinant; label: 5'-32P; unimolecular G4, 3+1 in K+, at most 2 nt 3' tail
[8] = unimolecular 5' G4 with about 11 nt 3' tail

B1: Tel33 (structured_DNA)
DNA: TTAGGGTTAGGGTTAGGGTTAGGGTTAGGGTTA
**Q.** How did the Kd [1] turn out when B1 was run?
**A.** Its Kd is 0.01 ± 0.0019 nM.

B2: Tel22-3'polyT-mutAGAA (structured_DNA)
DNA: AGGGTTAGGGTTAGGGTTAGGGTTAGAATTTTT
**Q.** Does B2 bind [2, 8]?
**A.** Result: binds

B3: Tel22-3'polyT-mutAAGA (structured_DNA)
DNA: AGGGTTAGGGTTAGGGTTAGGGTTAAGATTTTT
**Q.** Does B3 bind [2, 8]?
**A.** Result: binds

B4: Tel33mut5-mutA (ssDNA)
DNA: TTAGAGTTAGGGTTAGGGTTAGGGTTAGAGTTA
**Q.** Does B4 bind [3]?
**A.** Result: no binding

B5: Tel33mut5-mutA-pos3G (structured_DNA)
DNA: TTGGAGTTAGGGTTAGGGTTAGGGTTAGAGTTA
**Q.** Does B5 bind [4]?
**A.** Result: binds

B6: Tel33mut5-mutA-pos7G (structured_DNA)
DNA: TTAGAGGTAGGGTTAGGGTTAGGGTTAGAGTTA
**Q.** Does B6 bind [5]?
**A.** Result: binds

B7: Tel22 (structured_DNA)
DNA: AGGGTTAGGGTTAGGGTTAGGG
**Q.** Does B7 bind ([6]; no 3' tail)?
**A.** Result: no binding

B8: Tel26 (structured_DNA)
DNA: TTAGGGTTAGGGTTAGGGTTAGGGTT
**Q.** Does B8 bind [7]?
**A.** Result: no binding

B9: Tel30 (structured_DNA)
DNA: GGTTAGGGTTAGGGTTAGGGTTAGGGTTAG
**Q.** Does B9 bind [6]?
**A.** Result: binds

B10: Tel33mut5 (structured_DNA)
DNA: TTAGGGTTAGGGTTAGGGTTAGGGTTAGAGTTA
**Q.** Does B10 bind ([2]; unimolecular 5' G4 with 3' tail about 11 nt)?
**A.** Result: binds
